# Data as given in US20240092889A1 (Chugai, published 2024).
# Positions count from the first letter of the chain named. Numbers in names are those of the source.
# T1: recombinant human C1r2s2 tetramer (human, UniProt P09871 16-688; P00736 18-705)
# T1 construct: C1s and C1r co-expressed in HEK293/FreeStyle 293-F and purified from conditioned medium
# T1 chain 1: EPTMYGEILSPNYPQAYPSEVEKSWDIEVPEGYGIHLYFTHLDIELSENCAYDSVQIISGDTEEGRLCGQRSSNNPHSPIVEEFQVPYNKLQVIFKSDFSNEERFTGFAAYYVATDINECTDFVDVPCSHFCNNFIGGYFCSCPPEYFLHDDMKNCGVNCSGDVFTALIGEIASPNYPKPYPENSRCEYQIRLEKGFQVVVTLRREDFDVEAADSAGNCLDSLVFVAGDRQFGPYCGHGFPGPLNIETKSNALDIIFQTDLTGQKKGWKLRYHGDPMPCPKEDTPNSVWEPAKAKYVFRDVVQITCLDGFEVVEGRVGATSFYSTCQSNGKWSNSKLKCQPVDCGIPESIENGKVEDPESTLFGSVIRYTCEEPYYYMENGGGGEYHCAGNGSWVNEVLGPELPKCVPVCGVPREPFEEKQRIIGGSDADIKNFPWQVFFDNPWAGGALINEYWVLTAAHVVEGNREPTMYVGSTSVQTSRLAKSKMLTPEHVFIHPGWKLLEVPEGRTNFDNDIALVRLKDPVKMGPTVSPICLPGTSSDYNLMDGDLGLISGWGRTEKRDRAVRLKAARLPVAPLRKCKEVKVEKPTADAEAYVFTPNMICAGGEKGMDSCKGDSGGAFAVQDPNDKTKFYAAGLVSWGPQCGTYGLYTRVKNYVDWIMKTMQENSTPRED
# T1 chain 2: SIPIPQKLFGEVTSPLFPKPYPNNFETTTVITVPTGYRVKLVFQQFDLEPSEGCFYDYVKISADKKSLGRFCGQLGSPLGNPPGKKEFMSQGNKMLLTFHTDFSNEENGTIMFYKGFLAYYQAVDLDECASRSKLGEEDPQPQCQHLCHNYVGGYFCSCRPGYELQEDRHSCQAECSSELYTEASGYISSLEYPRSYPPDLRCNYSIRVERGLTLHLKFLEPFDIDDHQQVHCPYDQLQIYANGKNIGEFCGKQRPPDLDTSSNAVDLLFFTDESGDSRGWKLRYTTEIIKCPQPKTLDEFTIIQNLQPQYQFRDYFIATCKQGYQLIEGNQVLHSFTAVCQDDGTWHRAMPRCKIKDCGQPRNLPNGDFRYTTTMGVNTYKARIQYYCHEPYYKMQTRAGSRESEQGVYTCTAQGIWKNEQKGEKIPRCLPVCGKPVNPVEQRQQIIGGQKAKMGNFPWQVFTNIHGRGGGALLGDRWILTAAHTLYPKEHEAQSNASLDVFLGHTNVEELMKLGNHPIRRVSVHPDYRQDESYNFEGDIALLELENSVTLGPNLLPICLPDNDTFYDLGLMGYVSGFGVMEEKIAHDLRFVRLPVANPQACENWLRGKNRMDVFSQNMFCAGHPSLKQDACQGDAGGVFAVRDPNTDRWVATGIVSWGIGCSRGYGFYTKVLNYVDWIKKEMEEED
# B1: AL0459 (antibody, human IgG1, kappa, V domains shown)
# VH: QVQLVESGGGVVQPGRSLRLSCAASGFTFSAYAMNWIRQPPGKGLEWIGLIYGSGSTFYASWAKGRVTISVDTSKNQFSLKLSSVTAADTAVYYCARGRSVNYNSDFHLWGQGTLVTVSS
# VL: DIQMTQSPSSLSASVGDRVTITCQASQSLHDKKNLAWYQQKPGQPPKLLIYGASTLESGVPSRFSGSGSGTDFTLTISSLQPEDFATYYCQGEFSLSSADCNTFGQGTKVEIKR
# notes: COS0637temp with VL C94L (Kabat), already in the VL entry
# B2: AL0464 (antibody, human IgG1, kappa, V domains shown)
# VH: B1 VH
# VL: B1 VL with L96R
# notes: COS0637temp with VL C94R (Kabat), already in the VL entry
# B3: AL0551 (antibody, human IgG1, kappa, V domains shown)
# VH: B1 VH
# VL: B1 VL with L96C, C101M
# notes: COS0637temp with VL C95dM (Kabat), already in the VL entry
# B4: AL0560 (antibody, human IgG1, kappa, V domains shown)
# VH: B1 VH
# VL: B1 VL with L96C, C101Y
# notes: COS0637temp with VL C95dY (Kabat), already in the VL entry
# B5: AL0466 (antibody, human IgG1, kappa, V domains shown)
# VH: B1 VH
# VL: B1 VL with L96T
# notes: COS0637temp with VL C94T (Kabat), already in the VL entry
# B6: AL0542 (antibody, human IgG1, kappa, V domains shown)
# VH: B1 VH
# VL: B1 VL with L96C, C101A
# notes: COS0637temp with VL C95dA (Kabat), already in the VL entry
# B7: AL0555 (antibody, human IgG1, kappa, V domains shown)
# VH: B1 VH
# VL: B1 VL with L96C, C101R
# notes: COS0637temp with VL C95dR (Kabat), already in the VL entry
# B8: AL0547 (antibody, human IgG1, kappa, V domains shown)
# VH: B1 VH
# VL: B1 VL with L96C, C101H
# notes: COS0637temp with VL C95dH (Kabat), already in the VL entry
# B9: AL0552 (antibody, human IgG1, kappa, V domains shown)
# VH: B1 VH
# VL: B1 VL with L96C, C101N
# notes: COS0637temp with VL C95dN (Kabat), already in the VL entry
# B10: AL0558 (antibody, human IgG1, kappa, V domains shown)
# VH: B1 VH
# VL: B1 VL with L96C, C101V
# notes: COS0637temp with VL C95dV (Kabat), already in the VL entry
# B11: AL0543 (antibody, human IgG1, kappa, V domains shown)
# VH: B1 VH
# VL: B1 VL with L96C, C101D
# notes: COS0637temp with VL C95dD (Kabat), already in the VL entry
# B12: AL0462 (antibody, human IgG1, kappa, V domains shown)
# VH: B1 VH
# VL: B1 VL with L96P
# notes: COS0637temp with VL C94P (Kabat), already in the VL entry
# B13: AL0549 (antibody, human IgG1, kappa, V domains shown)
# VH: B1 VH
# VL: B1 VL with L96C, C101K
# notes: COS0637temp with VL C95dK (Kabat), already in the VL entry
# B14: AL0461 (antibody, human IgG1, kappa, V domains shown)
# VH: B1 VH
# VL: B1 VL with L96N
# notes: COS0637temp with VL C94N (Kabat), already in the VL entry
# B15: AL0545 (antibody, human IgG1, kappa, V domains shown)
# VH: B1 VH
# VL: B1 VL with L96C, C101F
# notes: COS0637temp with VL C95dF (Kabat), already in the VL entry
# B16: AL0460 (antibody, human IgG1, kappa, V domains shown)
# VH: B1 VH
# VL: B1 VL with L96M
# notes: COS0637temp with VL C94M (Kabat), already in the VL entry
# B17: AL0548 (antibody, human IgG1, kappa, V domains shown)
# VH: B1 VH
# VL: B1 VL with L96C, C101I
# notes: COS0637temp with VL C95dI (Kabat), already in the VL entry
# B18: AL0468 (antibody, human IgG1, kappa, V domains shown)
# VH: B1 VH
# VL: B1 VL with L96W
# notes: COS0637temp with VL C94W (Kabat), already in the VL entry
# B19: AL0463 (antibody, human IgG1, kappa, V domains shown)
# VH: B1 VH
# VL: B1 VL with L96Q
# notes: COS0637temp with VL C94Q (Kabat), already in the VL entry
# B20: AL0557 (antibody, human IgG1, kappa, V domains shown)
# VH: B1 VH
# VL: B1 VL with L96C, C101T
# notes: COS0637temp with VL C95dT (Kabat), already in the VL entry
# B21: AL0469 (antibody, human IgG1, kappa, V domains shown)
# VH: B1 VH
# VL: B1 VL with L96Y
# notes: COS0637temp with VL C94Y (Kabat), already in the VL entry
# B22: AL0553 (antibody, human IgG1, kappa, V domains shown)
# VH: B1 VH
# VL: B1 VL with L96C, C101P
# notes: COS0637temp with VL C95dP (Kabat), already in the VL entry
# B23: AL0559 (antibody, human IgG1, kappa, V domains shown)
# VH: B1 VH
# VL: B1 VL with L96C, C101W
# notes: COS0637temp with VL C95dW (Kabat), already in the VL entry
# B24: AL0550 (antibody, human IgG1, kappa, V domains shown)
# VH: B1 VH
# VL: B1 VL with L96C, C101L
# notes: COS0637temp with VL C95dL (Kabat), already in the VL entry
# B25: AL0544 (antibody, human IgG1, kappa, V domains shown)
# VH: B1 VH
# VL: B1 VL with L96C, C101E
# notes: COS0637temp with VL C95dE (Kabat), already in the VL entry
# B26: AL0554 (antibody, human IgG1, kappa, V domains shown)
# VH: B1 VH
# VL: B1 VL with L96C, C101Q
# notes: COS0637temp with VL C95dQ (Kabat), already in the VL entry
# B27: AL0465 (antibody, human IgG1, kappa, V domains shown)
# VH: B1 VH
# VL: B1 VL with L96S
# notes: COS0637temp with VL C94S (Kabat), already in the VL entry
# B28: AL0556 (antibody, human IgG1, kappa, V domains shown)
# VH: B1 VH
# VL: B1 VL with L96C, C101S
# notes: COS0637temp with VL C95dS (Kabat), already in the VL entry
# B29: AL0467 (antibody, human IgG1, kappa, V domains shown)
# VH: B1 VH
# VL: B1 VL with L96V
# notes: COS0637temp with VL C94V (Kabat), already in the VL entry
# B30: AL0546 (antibody, human IgG1, kappa, V domains shown)
# VH: B1 VH
# VL: B1 VL with L96C, C101G
# notes: COS0637temp with VL C95dG (Kabat), already in the VL entry
# Molecular target: T1, recombinant human C1r2s2 tetramer
# Experiment: SPR (BIACORE), antibody captured by ProL, human C1r2s2 injected at 100 nM, pH 7.4, 37 C
# Procedure: Analysis of interaction between antibody variants and the human C1r2s2 prepared as mentioned above was carried out at pH7.4, at 37 degrees C. using BIACORE® T200 instrument (GE Healthcare) or BIACORE® 4000 (GE Healthcare). ProL (BioVision) was immobilized onto a CM4 sensorchip using amine coupling kit (GE Healthcare) according to the recommended settings by GE Healthcare. Antibodies and analytes were diluted into the respective running buffers, ACES pH7.4 (20 mM ACES (N-(2-Acetamido)-2-aminoethanesulfonic acid), 150 mM NaCl, 1.2 mM CaCl2, 1 mg/ml bovine serum albumin (BSA), 1 mg/ml CMD (CM-Dextran sodium salt), 0.05% Tween® 20 (polysorbate 20), 0.005 w/v % NaN3). Each antibody was captured onto the sensor surface by ProL. Antibody capture levels were aimed at 200 resonance units (RU). Then, recombinant human C1r2s2 was injected at concentrations of 25 and 100 nM followed by dissociation at pH7.4. The surface was regenerated using 10 mM Glycine-HCl, pH1.5.
row,binding result,Binder
1,no binding (tested: 100 nM),B1
2,no binding (tested: 100 nM),B2
3,no binding (tested: 100 nM),B3
4,no binding (tested: 100 nM),B4
5,no binding (tested: 100 nM),B5
6,no binding (tested: 100 nM),B6
7,no binding (tested: 100 nM),B7
8,no binding (tested: 100 nM),B8
9,no binding (tested: 100 nM),B9
10,no binding (tested: 100 nM),B10
11,no binding (tested: 100 nM),B11
12,no binding (tested: 100 nM),B12
13,no binding (tested: 100 nM),B13
14,no binding (tested: 100 nM),B14
15,no binding (tested: 100 nM),B15
16,no binding (tested: 100 nM),B16
17,no binding (tested: 100 nM),B17
18,no binding (tested: 100 nM),B18
19,no binding (tested: 100 nM),B19
20,no binding (tested: 100 nM),B20
21,no binding (tested: 100 nM),B21
22,no binding (tested: 100 nM),B22
23,no binding (tested: 100 nM),B23
24,no binding (tested: 100 nM),B24
25,no binding (tested: 100 nM),B25
26,no binding (tested: 100 nM),B26
27,no binding (tested: 100 nM),B27
28,no binding (tested: 100 nM),B28
29,no binding (tested: 100 nM),B29
30,no binding (tested: 100 nM),B30
